This passage reports EC50; NFAT luciferase reporter (RLU), CHO cells with human PDL1 co-incubated with Jurkat cells with human PD1 and NFAT reporter, blocking of PDL1/PD1 results from patent publication US20250320297A1.

For this experiment, the target named is human PDL1 stably expressed on CHO cells (human) (UniProt Q9NZQ7).
Chain of human PDL1 stably expressed on CHO cells (human) (Q9NZQ7 19-290 limits assumed): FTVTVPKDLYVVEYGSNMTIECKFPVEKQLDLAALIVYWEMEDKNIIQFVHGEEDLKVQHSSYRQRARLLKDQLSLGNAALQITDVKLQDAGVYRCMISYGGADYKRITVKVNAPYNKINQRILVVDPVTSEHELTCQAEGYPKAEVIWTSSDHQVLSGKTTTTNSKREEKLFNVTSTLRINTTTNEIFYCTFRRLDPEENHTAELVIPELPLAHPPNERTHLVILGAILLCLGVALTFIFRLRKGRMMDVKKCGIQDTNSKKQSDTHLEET

For “Reference Ab 1 (analog of MPDL3280A) (antibody)”, the EC50; NFAT luciferase reporter (RLU), CHO cells with human PDL1 co-incubated with Jurkat cells with human PD1 and NFAT reporter, blocking of PDL1/PD1 was 0.0532 nM.
